Where two headings read alike, the source gives them in different places.
B1: VHH A-siGFPst1: siGFPst1 conjugated to a tagged VHH A (conjugate)
VHH: EVQLVESGGGVVQPGGSLKLSCVASGTDFSINFIRWYRQAPGKQREFVAGFTATGNTNYADSMKGRFTISRDNTKNAVYLQIDSLKPEDTAVYYCYMLDKWGQGTQVTVSSAAAEQKLISEEDLNGAAHHHHHHGS
B2: VHH B-siGFPst1: siGFPst1 conjugated to VHH B (conjugate)
VHH: EVQLVESGGGVVQPGGSLRLSCAASGEIFSINFMRWYRQAPGKQREWVAGFTRDGSTNYPDSAKGRFTISRDNAKNTVYLQIDSLKPEDTAVYYCYMLDTWGQGTQVTVSSAAAEQKLISEEDLNGAAHHHHHHGS
B3: VHH A-NODAGA: VHH A-azide reacted with NODAGA-BCN (conjugate)
VHH: EVQLVESGGGVVQPGGSLKLSCVASGTDFSINFIRWYRQAPGKQREFVAGFTATGNTNYADSMKGRFTISRDNTKNAVYLQIDSLKPEDTAVYYCYMLDKWGQGTQVTVSSAAAEQKLISEEDLNGAAHHHHHHGSAAAHHHHHHGGGLQR
B4: VHH A-68Ga: VHH A-NODAGA radiolabeled using 68Ga chloride (conjugate)
VHH: EVQLVESGGGVVQPGGSLKLSCVASGTDFSINFIRWYRQAPGKQREFVAGFTATGNTNYADSMKGRFTISRDNTKNAVYLQIDSLKPEDTAVYYCYMLDKWGQGTQVTVSSAAAEQKLISEEDLNGAAHHHHHHGSAAAHHHHHHGGGLQR

Columns and labels:
GFP [1] = test system: GFP
Method: Second, the intrinsic silencing activity of the VHH-siGFPst1 bioconjugate was assessed in living CHO cell lines stably expressing the TfR fused to EGFP (CHO-hTfR-EGFP cells) by transfection of the conjugate at 25 nM using Dharmafect 1 (Dharmacon) for direct delivery into the cytosol. The total cellular amount of GFP was quantified 72 hours post-transfection using flow cytometry. […] In another series of experiments, the VHH A-siGFPst1 conjugate was transfected on CHO-hTfR-EGFP cells at concentrations ranging from 10 nM to 1 pM and the total cellular amount of GFP was quantified 120 hours post-transfection using flow cytometry.

GFP [2] = conditions: for reduction of GFP protein levels: 120 hrs at 37°C
Method: Third, the ability of the VHH A, once conjugated to siGFPst1, to trigger hTfR-mediated endocytosis and subsequent delivery into the cytosol of target cells in pharmacological amounts was assessed. The VHH A-siGFPst1 or the control VHH Z-siGFPst1 bioconjugates were incubated on CHO-hTfR-GFP cells at 1 µM during 120 hrs at 37°C to allow free uptake, delivery to the cytosol and gene silencing to take place at the mRNA transcript and protein levels. […] Next, the VHH A-siGFPst1 bioconjugate was incubated on CHO-hTfR-GFP cells at concentrations ranging from 3 µM to 10 pM during 120 hrs.
Fifth, the TfR-mediated GFP-silencing effect of the VHH A-siGFPst1 bioconjugate was evaluated using a pulse-chase procedure. CHO-hTfR-GFP cells were exposed to VHH A-siGFPst1 at concentrations ranging from 300 nM to 1 pM during a short duration (6 hours), followed by chase in ligand-free medium up to a total duration of 120 hrs.
Finally, the ability of the VHH B to trigger hTfR-mediated endocytosis and subsequent gene silencing was evaluated by incubating the VHH B-siGFPst1 bioconjugate on CHO-hTfR-GFP cells at 30 nM during 120 hrs. […] To the best of our knowledge, receptor-mediated hepatocyte uptake through the asialoglycoprotein receptor (ASGPR) using triantennary GalNAc as a targeting ligand is the only ligand/receptor system able to trigger specific and efficient gene silencing at nanomolar concentrations. However, the use of this system for in vivo therapeutic applications with therapeutic nucleic acids is restricted to hepatic targets, since ASGPR is expressed in vivo exclusively in hepatocytes.

human TfR = target: T1, human TfR (Homo sapiens, UniProt P02786); experiment: Flow cytometry apparent Kd (Kd app) on CHO cells expressing hTfR fused to EGFP; assay type: binding; conditions: bioconjugates (siGFPst1, NODAGA, 68Ga), 2 µM to 30 pM, 1 hr at 4°C
T1 construct: expressed in transfected cells
T1 sequence (P02786 whole entry, the tested form may be a part): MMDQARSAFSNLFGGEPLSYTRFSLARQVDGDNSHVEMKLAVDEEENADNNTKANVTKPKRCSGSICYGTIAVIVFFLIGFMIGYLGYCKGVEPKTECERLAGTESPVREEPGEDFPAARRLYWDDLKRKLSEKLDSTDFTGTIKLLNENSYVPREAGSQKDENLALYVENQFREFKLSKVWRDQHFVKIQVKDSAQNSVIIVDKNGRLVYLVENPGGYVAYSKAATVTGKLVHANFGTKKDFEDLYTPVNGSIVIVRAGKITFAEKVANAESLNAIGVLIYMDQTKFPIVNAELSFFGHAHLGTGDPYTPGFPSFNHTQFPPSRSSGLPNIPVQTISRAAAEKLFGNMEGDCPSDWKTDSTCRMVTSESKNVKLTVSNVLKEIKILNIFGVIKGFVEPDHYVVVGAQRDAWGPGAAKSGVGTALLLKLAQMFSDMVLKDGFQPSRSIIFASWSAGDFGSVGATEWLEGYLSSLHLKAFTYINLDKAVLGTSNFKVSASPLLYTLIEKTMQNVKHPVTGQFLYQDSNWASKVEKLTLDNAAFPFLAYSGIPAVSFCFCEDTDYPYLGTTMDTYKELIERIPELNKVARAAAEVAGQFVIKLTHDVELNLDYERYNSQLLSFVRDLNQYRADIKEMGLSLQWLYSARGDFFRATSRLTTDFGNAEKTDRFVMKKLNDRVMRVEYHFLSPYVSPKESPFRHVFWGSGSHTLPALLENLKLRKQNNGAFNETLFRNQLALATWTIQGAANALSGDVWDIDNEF
Method: After one wash in PBS/BSA 2%, cells were incubated for 1 hr with an anti-6His tag antibody (mouse), washed twice with PBS/BSA 2%, and incubated for 45 min with an Alexa647-conjugated anti-mouse secondary antibody. […] No labeling of the CHO WT control cells was detected with all the tested VHHs (not shown).
After one wash in PBS/BSA 2%, cells were incubated for 1 hr with an anti-6His tag antibody (mouse), washed twice with PBS/BSA 2%, and incubated for 45 min with an Alexa647-conjugated anti-mouse secondary antibody. […] Fluorescence levels were assessed using an Attune NxT Flow Cytometer (Thermo Fisher Scientific). […] No labeling of the CHO WT control cells was detected with all the tested VHHs (not shown).
The binding properties of VHHs with affinity for the TfR from different species (i.e., human (h), mouse (m) and rhesus monkey (rh)) were tested using flow cytometry, and apparent affinities (Kd app) were determined. […] CHO cell lines expressing the hTfR, mTfR or rhTfR fused to EGFP were saturated with PBS/BSA 2% solution during 30 min to avoid nonspecific binding, followed by incubation with purified VHHs at increasing concentrations for 1 hr. After one wash in PBS/BSA 2%, cells were incubated for 1 hr with an anti-6His tag antibody (mouse), washed twice with PBS/BSA 2%, and incubated for 1 hr with an Alexa647-conjugated anti-mouse secondary antibody. After two last washes in PBS/BSA 2%, cells were fixed by incubation for 15 min with PBS/PFA 2%, washed once with PBS and finally resuspended in PBS. Fluorescence levels were assessed using an Attune NxT flow cytometer (Thermo Fisher Scientific).

Molecule	IC50 (GFP [1]; read-out: IC50 (reduction of GFP protein levels), transfection 10 nM to 1 pM, 120 hours) [nM]	maximum silencing efficiency (GFP [1]; transfection 10 nM to 1 pM, 120 hours) [%]	reduction of GFP protein levels (GFP [1]; transfection at 25 nM, 72 hours post-transfection)	GFP protein levels, % of the control levels (GFP [2]; 30 nM with 100X excess of free VHH A, 120 hrs) [%]	GFP protein levels, % of the control levels (GFP [2]; 30 nM with 100X excess of free VHH B, 120 hrs) [%]	competition of the silencing effect (GFP [2]; 30 nM with 100X excess of irrelevant VHH Z, 120 hrs)	reduction of GFP protein levels (GFP [2]; free uptake, 30 nM)	reduction of GFP protein levels (GFP [2]; free uptake, 1 µM)	maximum silencing efficiency (GFP [2]; free uptake, continuous 120 hrs) [%]	apparent hTfR-binding affinity (Kd app) (human TfR)
B1	0.0504	-90.2	ca. 85%	85	96	no competition	ca. 60%	ca. -70%	-61.6 ± 2.9	low nanomolar range
B2	–	–	–	–	–	–	ca. -60%	–	–	low nanomolar range
B3	–	–	–	–	–	–	–	–	–	low nanomolar range
B4	–	–	–	–	–	–	–	–	–	low nanomolar range

— patent publication EP4480965A1, “TRANSFERRIN RECEPTOR-BINDING MOLECULES, CONJUGATES THEREOF AND THEIR USES TO PREVENT OR TREAT CNS DISEASES” (Vect-Horus, priority 2023, dated 2024)
